Assay results: patent US5965697, “Disaggregated mutant human RANTES” (British Biotech Pharmaceuticals Limited, dated 1999)
Where “and” joins values, the source holds several entries; their conditions need not be identical. Identical values can stand only once.

Experiments:
[1] = biological target: wild-type human RANTES (hRANTES) (human); assay: sedimentation equilibrium AUC in PBS, 0.1 mg/ml; self-association (monomer 7850 Da)
[2] = biological target: cell-surface proteoglycans; assay: radioligand binding, 0.125 nM 125I-hRANTES on CHO cells, filter harvest
[3] = biological target: T-cell receptor complex (tyrosine kinase pathway) on CD3+ Jurkat cells and cultured human T lymphocytes (human); conditions: scale: % of cells expressing the cell surface marker
[4] = biological target: the molecule itself; assay: sedimentation equilibrium AUC in PBS, 0.5 mg/ml; self-association
Protocol: Mutagenesis of pERM1 was performed according to the method of Kunkel et al., (Methods in Enzymology, 154: 367–382; 1987). The oligonucleotides BB-35875 (SEQ ID NO. 14; 5'-[…] […] GTGG-3') and BB-37015 (SEQ ID No. 15; 5'-[…] ACATTGA-CAA […]-3') were used to construct the hRANTES Glu26>Ala and Glu66>Ser variant genes respectively. A combination of both BB-35875 and BB-37015 was used to […]. The samples were spun at 15,000 r.p.m., 25° C. for 18 hours to reach equilibrium. Final solute distributions were recorded at 235 nm, 280 nm and 295 nm as a function of radius. The scan was repeated after a further three hours of centrifugation to confirm that equilibrium had been achieved. The final solute distribution ASCII data were captured and the Microcal Origin software for the Beckman XLA analytical ultracentrifuge was used to fit the data to a model assuming a single ideal species (Ideal1) to provide an estimate of the weight average molecular weight.

[5] = biological target: G-protein coupled receptors (GPCRs) through which hRANTES acts
[6] = biological target: T-cell receptor complex (tyrosine kinase pathway) on CD3+ Jurkat cells and cultured human T lymphocytes (human)
[7] = biological target: cell-surface proteoglycans; assay: radioligand binding, 0.2 nM 125I-hRANTES E66>S on CHO cells, filter harvest

wild-type human RANTES (hRANTES) (ligand)
Average molecular weight by AUC (Da) [1]: > 160000 Da

B1: wild-type human RANTES (hRANTES) (ligand)
chain: SPYSSDTTPCCFAYIARPLPRAHIKEYFYTSGKCSNPAVVFVTRKNRQVCANPEKKWVREYINSLEMS
total counts bound [2]: 5730 cpm | % of cells expressing the cell surface marker (CD69, CD11b, CD11c) on cultured human T lymphocytes, 5 µM [3]: 99.1

B2: hRANTES E26>A (ligand)
chain: SPYSSDTTPCCFAYIARPLPRAHIKAYFYTSGKCSNPAVVFVTRKNRQVCANPEKKWVREYINSLEMS
Average molecular weight by AUC (Da) [4]: 33000 Da | IC50 of p24 antigen production by PBMC infected with HIV-1 RR [5]: 28 nM and 0.22 µg/ml

B3: hRANTES E26>A E66>S (ligand)
chain: SPYSSDTTPCCFAYIARPLPRAHIKAYFYTSGKCSNPAVVFVTRKNRQVCANPEKKWVREYINSLSMS
Average molecular weight by AUC (Da) [4]: 15000 Da

B4: hRANTES E66>S (ligand)
chain: SPYSSDTTPCCFAYIARPLPRAHIKEYFYTSGKCSNPAVVFVTRKNRQVCANPEKKWVREYINSLSMS
calcium mobilisation in CD3+ Jurkat cells [6]: 200 fold | Average molecular weight by AUC (Da) [4]: 14000 Da | total counts bound [7]: 18300 cpm | % of cells expressing the cell surface marker (CD69, CD11b, CD11c) on cultured human T lymphocytes, 5 µM [3]: 0.39
